Experimental data: patent EP2536430B1

Molecular target: interleukin 3 receptor α (IL-3Rα) chain on human pDCs and basophils (human) (UniProt P26951)
Assay: cell-based or functional assay

Sequence of UniProt P26951 (P26951 20-378): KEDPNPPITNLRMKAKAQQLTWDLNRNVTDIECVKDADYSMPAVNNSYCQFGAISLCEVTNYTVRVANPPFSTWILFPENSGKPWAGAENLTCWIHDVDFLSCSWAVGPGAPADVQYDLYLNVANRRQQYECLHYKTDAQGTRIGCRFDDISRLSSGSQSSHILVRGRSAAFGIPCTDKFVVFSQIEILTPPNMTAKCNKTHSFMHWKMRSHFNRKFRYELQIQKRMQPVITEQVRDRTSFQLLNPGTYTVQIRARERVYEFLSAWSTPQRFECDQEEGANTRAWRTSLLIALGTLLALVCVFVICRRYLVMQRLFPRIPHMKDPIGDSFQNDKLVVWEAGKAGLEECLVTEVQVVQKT

Substance “ch7G3 (chimeric version of 7G3 with a human IgG1 constant domain) (antibody)” has a pDCs (% of total cells remaining in culture), 4h, 10 µg/ml antibody on human PBMC (% of total cells remaining in culture) of 0.1, a pDCs (% of total cells remaining in culture), 24h, 10 µg/ml antibody on human PBMC (% of total cells remaining in culture) of 0.02 and a pDCs (% of total cells remaining in culture), 48h, 10 µg/ml antibody on human PBMC (% of total cells remaining in culture) of 0.005.
